Target: recombinant biotin-FLAG-tagged human ATM (human, UniProt Q13315 1-3056, biotin)
Assay: pull-down

Chain of recombinant biotin-FLAG-tagged human ATM (Q13315 whole entry): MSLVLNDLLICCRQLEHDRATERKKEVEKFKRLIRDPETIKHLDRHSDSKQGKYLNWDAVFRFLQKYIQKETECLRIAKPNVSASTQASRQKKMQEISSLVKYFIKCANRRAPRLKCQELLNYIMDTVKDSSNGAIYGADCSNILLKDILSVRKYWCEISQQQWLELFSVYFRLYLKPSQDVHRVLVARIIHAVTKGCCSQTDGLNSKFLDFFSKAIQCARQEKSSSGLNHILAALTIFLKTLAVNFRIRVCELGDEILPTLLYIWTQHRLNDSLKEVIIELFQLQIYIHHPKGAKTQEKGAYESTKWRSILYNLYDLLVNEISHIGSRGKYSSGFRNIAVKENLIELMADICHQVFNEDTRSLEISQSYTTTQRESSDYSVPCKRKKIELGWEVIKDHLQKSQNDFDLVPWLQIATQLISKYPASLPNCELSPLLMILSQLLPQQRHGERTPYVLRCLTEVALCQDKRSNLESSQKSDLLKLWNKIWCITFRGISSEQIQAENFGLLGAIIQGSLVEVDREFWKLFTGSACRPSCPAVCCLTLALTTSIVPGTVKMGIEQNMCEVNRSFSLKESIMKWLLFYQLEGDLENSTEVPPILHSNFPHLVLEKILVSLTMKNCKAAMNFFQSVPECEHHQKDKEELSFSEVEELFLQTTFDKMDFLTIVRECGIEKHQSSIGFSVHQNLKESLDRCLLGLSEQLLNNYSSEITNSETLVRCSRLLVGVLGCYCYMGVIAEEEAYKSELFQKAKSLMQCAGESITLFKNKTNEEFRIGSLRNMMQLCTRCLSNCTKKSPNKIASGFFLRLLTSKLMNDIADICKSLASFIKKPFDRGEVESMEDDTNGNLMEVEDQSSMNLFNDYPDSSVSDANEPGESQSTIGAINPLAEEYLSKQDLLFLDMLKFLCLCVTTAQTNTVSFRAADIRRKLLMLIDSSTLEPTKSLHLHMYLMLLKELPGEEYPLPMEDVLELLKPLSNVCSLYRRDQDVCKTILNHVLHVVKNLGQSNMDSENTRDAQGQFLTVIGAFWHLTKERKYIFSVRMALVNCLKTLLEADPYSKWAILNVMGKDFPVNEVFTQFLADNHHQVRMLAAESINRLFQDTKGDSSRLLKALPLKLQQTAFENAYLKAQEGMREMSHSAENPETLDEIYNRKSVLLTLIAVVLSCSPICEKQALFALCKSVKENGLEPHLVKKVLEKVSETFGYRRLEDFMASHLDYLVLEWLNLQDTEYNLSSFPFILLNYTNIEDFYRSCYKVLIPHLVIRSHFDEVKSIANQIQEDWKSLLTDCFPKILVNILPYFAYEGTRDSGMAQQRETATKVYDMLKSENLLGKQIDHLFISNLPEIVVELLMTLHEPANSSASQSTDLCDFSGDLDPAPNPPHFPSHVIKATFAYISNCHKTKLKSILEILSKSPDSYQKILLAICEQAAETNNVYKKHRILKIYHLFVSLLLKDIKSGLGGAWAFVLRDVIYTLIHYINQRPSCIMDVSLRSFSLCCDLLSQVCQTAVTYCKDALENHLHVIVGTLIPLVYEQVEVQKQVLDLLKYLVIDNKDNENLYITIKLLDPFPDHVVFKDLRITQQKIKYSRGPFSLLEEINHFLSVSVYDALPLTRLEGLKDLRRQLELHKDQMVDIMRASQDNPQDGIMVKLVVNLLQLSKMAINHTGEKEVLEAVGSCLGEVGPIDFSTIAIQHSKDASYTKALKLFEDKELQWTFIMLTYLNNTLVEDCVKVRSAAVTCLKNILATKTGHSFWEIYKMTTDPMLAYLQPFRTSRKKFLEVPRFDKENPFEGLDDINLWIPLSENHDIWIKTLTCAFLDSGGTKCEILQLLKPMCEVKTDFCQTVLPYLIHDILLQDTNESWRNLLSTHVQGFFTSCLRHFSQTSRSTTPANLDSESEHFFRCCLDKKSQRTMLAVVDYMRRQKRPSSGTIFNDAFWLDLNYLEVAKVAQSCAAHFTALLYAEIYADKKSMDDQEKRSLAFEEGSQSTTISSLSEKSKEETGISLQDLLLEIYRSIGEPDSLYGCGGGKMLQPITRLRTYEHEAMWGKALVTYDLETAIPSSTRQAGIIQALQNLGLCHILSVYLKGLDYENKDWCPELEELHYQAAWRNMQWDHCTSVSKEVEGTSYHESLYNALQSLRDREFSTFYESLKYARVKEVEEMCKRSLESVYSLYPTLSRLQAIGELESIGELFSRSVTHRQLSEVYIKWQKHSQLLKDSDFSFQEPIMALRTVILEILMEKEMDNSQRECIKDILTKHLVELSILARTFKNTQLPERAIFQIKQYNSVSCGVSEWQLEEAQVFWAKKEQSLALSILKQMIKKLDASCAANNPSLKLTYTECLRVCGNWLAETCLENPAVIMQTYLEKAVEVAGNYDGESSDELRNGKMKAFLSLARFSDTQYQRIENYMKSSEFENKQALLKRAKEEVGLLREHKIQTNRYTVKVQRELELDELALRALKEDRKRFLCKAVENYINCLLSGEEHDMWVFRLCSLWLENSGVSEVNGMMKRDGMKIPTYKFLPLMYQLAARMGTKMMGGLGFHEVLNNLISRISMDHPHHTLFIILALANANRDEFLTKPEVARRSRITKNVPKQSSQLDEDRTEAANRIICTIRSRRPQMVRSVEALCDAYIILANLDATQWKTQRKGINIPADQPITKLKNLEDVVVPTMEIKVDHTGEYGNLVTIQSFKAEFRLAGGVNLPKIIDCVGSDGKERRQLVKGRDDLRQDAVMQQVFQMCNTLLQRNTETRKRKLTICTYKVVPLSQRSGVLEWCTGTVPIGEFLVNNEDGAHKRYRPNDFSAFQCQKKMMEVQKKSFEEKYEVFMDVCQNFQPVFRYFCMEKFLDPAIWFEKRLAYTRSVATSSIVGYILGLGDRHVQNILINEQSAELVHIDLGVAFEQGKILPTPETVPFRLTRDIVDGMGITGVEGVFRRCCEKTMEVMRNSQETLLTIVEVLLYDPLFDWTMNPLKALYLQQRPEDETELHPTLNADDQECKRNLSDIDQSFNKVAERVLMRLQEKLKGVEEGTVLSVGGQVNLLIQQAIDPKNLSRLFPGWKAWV

binding result: binds
B1: MBP-tagged human MRI (natural protein, UniProt Q9BWK5 1-157, looked up)
chain: METLQSETKTRVLPSWLTAQVATKNVAPMKAPKRMRMAAVPVAAARLPATRTVYCMNEAEIVDVALGILIESRKQEKACEQPALAGADNPEHSPPCSVSPHTSSGSSSEEEDSGKQALAPGLSPSQRPGGSSSACSRSPEEEEEEDVLKYVREIFFS

— PMC6083883 (Molecular cell, 2018)
